# Measured values: patent publication US9957299B2, “Peptidomimetic macrocycles” (AILERON THERAPEUTICS, INC., priority 2010, dated 2018)
# Numbered stars: 1 amine (or outer) side, 2 acyl side, 3 side chain; on linkers, the order of the positions; unused ones are H or OH. Bridge positions count the residues as written; N and C are the ends. Square brackets hold non-standard residues; d marks the D form. Peptide text beside a SMILES is read from it. Trp(6-Cl) = N[C@@H](Cc1c[nH]c2cc(Cl)ccc12)C(=O)O; X3 = C=CCCCC(CCCC=C)(N[*:1])C(=O)[*:2]; R8 = C=CCCCCCC[C@@](C)(N)C(=O)O; S8 = C=CCCCCCC[C@](C)(N)C(=O)O; S5 = C=CCCC[C@](C)(N)C(=O)O; Nle = CCCC[C@H](N)C(=O)O; Ac3c = NC1(C(=O)O)CC1; Aib = CC(C)(N)C(=O)O
# Test: circular dichroism
# Conditions: aqueous, '0% TFE' (buffer not stated; general: 50 mM potassium phosphate pH 7 or water); pH ns; ns °C; 25-50 uM (general text)
row,Molecule,helicity [%]
1,CC(=O)N[C@@H](CCC(N)=O)C(=O)N[C@@H](CO)C(=O)N[C@@H](CCC(N)=O)C(=O)N[C@@H](CCC(N)=O)C(=O)N[C@H](C(=O)N[C@@H](Cc1ccccc1)C(=O)N[C@@H]1CCCCCCC=CCCC[C@@H](C(=O)N[C@@H](CCC(N)=O)C(=O)N[C@@H](CC(N)=O)C(N)=O)NC(=O)[C@H](CC(C)C)NC(=O)[C@H](CC(C)C)NC(=O)[C@H](CCCNC(=N)N)NC(=O)[C@H](Cc2c[nH]c3ccccc23)NC(=O)[C@H](CC(C)C)NC(=O)[C@H](CC(N)=O)NC1=O)[C@@H](C)O,50.5
2,CC(=O)N[C@@H](C)C(=O)N[C@@H](C)C(=O)N[C@@H](C)C(=O)N[C@@H](CCCNC(=N)N)C(=O)N[C@@H](C)C(=O)N[C@@H](C)C(=O)N[C@]1(C)CCCCCCC=CCCC[C@@](C)(C(=O)N[C@@H](C)C(=O)N[C@@H](C)C(N)=O)NC(=O)[C@H](C)NC(=O)[C@H](C)NC(=O)[C@H](CCCNC(=N)N)NC(=O)[C@H](C)NC(=O)[C@H](C)NC(=O)[C@H](C)NC1=O (Ac-AAARAA[R8]AAARAA[S5]AA-NH2; staple 7-14),131
3,CC(=O)N[C@@H](CC(C)C)C(=O)N[C@H](C(=O)N[C@@H](Cc1ccccc1)C(=O)N[C@]1(C)CCCCCCC=CCCC[C@@](C)(C(=O)N[C@@H](CO)C(N)=O)NC(=O)[C@H](CC(C)C)NC(=O)[C@H](CCC(N)=O)NC(=O)[C@H](CCCNC(=N)N)NC(=O)[C@H](Cc2c[nH]c3ccccc23)NC(=O)[C@H](Cc2ccc(O)cc2)NC(=O)[C@H](Cc2c[nH]cn2)NC1=O)[C@@H](C)O (Ac-LTF[R8]HYWRQL[S5]S-NH2; staple 4-11),59.5
4,CC(=O)N[C@@H](CC(C)C)C(=O)N[C@H](C(=O)N[C@@H](Cc1ccccc1)C(=O)N[C@@H](CCC(=O)O)C(=O)N[C@@H](Cc1c[nH]cn1)C(=O)N[C@@H](Cc1ccc(O)cc1)C(=O)N[C@@H](Cc1c[nH]c2ccccc12)C(=O)N[C@@H](C)C(=O)N[C@@H](CCC(N)=O)C(=O)N[C@@H](CC(C)C)C(=O)N[C@H](C(=O)N[C@@H](CO)C(N)=O)[C@@H](C)O)[C@@H](C)O,-0.5
5,CSCC[C@H](NC(=O)[C@H](Cc1ccccc1)NC(C)=O)C(=O)NC(C)(C)C(=O)N[C@@H](Cc1ccc(O)cc1)C(=O)N[C@@H](Cc1c[nH]c2cc(Cl)ccc12)C(=O)N[C@@H](CCC(=O)O)C(=O)NC1(C(=O)N[C@@H](CC(C)C)C(N)=O)CC1 (Ac-FM[Aib]Y[Trp(6-Cl)]E[Ac3c]L-NH2),-3.6
6,CCCC[C@@H]1NC(=O)[C@H](CCCNC(=N)N)NC(=O)[C@H](Cc2c[nH]c3ccccc23)NC(=O)[C@H](CC(C)C)NC(=O)[C@H](CC(N)=O)NC(=O)[C@](C)(NC(=O)[C@H](Cc2ccccc2)NC(=O)[C@@H](NC(=O)[C@H](CCC(N)=O)NC(=O)[C@H](CCC(N)=O)NC(=O)[C@H](CO)NC(=O)[C@H](CCC(N)=O)NC(C)=O)[C@@H](C)O)CCCCCCCCCCC[C@@](C)(C(=O)N[C@@H](CCC(N)=O)C(=O)N[C@@H](CC(N)=O)C(N)=O)NC(=O)[C@H](CC(C)C)NC1=O,84.7
7,C=CCCCCCC[C@](C)(NC(=O)[C@H](CC(C)C)NC(=O)[C@H](CC(C)C)NC(=O)[C@H](CCCNC(=N)N)NC(=O)[C@H](Cc1c[nH]c2ccccc12)NC(=O)[C@H](CC(C)C)NC(=O)[C@H](CC(N)=O)NC(=O)C(CCCC=C)(CCCC=C)NC(=O)[C@H](Cc1ccccc1)NC(=O)[C@@H](NC(=O)[C@H](CCC(N)=O)NC(=O)[C@](C)(CCCC=C)NC(=O)[C@H](CO)NC(=O)[C@H](CCC(N)=O)NC(C)=O)[C@@H](C)O)C(=O)N[C@@H](CCC(N)=O)C(=O)N[C@@H](CC(N)=O)C(N)=O (Ac-QS[S5]QTF[X3]NLWRLL[S8]QN-NH2),99
8,Ac-QSQQTFSNLWRLLPQN-NH2,5
9,CC(=O)N[C@]1(C)CCCCCCCCCCC[C@@](C)(C(=O)N[C@@H](CC(C)C)C(=O)N[C@@H](Cc2c[nH]c3ccccc23)C(=O)N[C@@H](CCCNC(=N)N)C(=O)N[C@@H](CC(C)C)C(=O)N[C@@H](CC(C)C)C(=O)NC(C)(C)C(=O)N[C@@H](CCC(N)=O)C(=O)N[C@@H](CC(N)=O)C(N)=O)NC(=O)[C@H](CO)NC(=O)[C@H](Cc2ccccc2)NC(=O)[C@H]([C@@H](C)O)NC(=O)[C@H](CCC(N)=O)NC(=O)[C@H](CCC(N)=O)NC(=O)[C@H](CO)NC1=O,66.7
10,Ac-QTFEHWWSQLLS-NH2,21.6
11,CCCC[C@H](NC(C)=O)C(=O)N1CCC[C@H]1C(=O)N[C@@H](CCCNC(=N)N)C(=O)N[C@@H](Cc1ccccc1)C(=O)N[C@]1(C)CCCCCCC=CCCC[C@@](C)(C(=O)N[C@@H](CCC(N)=O)C(=O)N[C@@H](CC(N)=O)C(N)=O)NC(=O)[C@H](CC(C)C)NC(=O)[C@H](CC(C)C)NC(=O)[C@H](CCCNC(=N)N)NC(=O)[C@H](Cc2c[nH]c3ccccc23)NC(=O)[C@H](Cc2ccc(O)cc2)NC(=O)[C@H](CC(N)=O)NC1=O (Ac-[Nle]PRF[R8]NYWRLL[S5]QN-NH2; staple 5-12),62.6
12,CC(=O)N[C@@H](CC(C)C)C(=O)N[C@H](C(=O)N[C@@H](Cc1ccccc1)C(=O)N[C@]1(C)CCCCCCCCCCC[C@@](C)(C(=O)N[C@@H](CO)C(N)=O)NC(=O)[C@H](CC(C)C)NC(=O)[C@H](CCC(N)=O)NC(=O)[C@H](CCCNC(=N)N)NC(=O)[C@H](Cc2c[nH]c3cc(Cl)ccc23)NC(=O)[C@H](Cc2ccc(O)cc2)NC(=O)[C@H](Cc2c[nH]cn2)NC1=O)[C@@H](C)O,74.2
13,CC(=O)N[C@@H](CCC(N)=O)C(=O)N[C@@H](CO)C(=O)N[C@@H](CCC(N)=O)C(=O)N[C@@H](CCC(N)=O)C(=O)N[C@H](C(=O)N[C@@H](Cc1ccccc1)C(=O)N[C@]1(C)CCCCCCCCCCC[C@@](C)(C(=O)N[C@@H](CCC(N)=O)C(=O)N[C@@H](CC(N)=O)C(N)=O)NC(=O)[C@H](CC(C)C)NC(=O)[C@H](CC(C)C)NC(=O)[C@H](CCCNC(=N)N)NC(=O)[C@H](Cc2c[nH]c3cc(Cl)ccc23)NC(=O)[C@H](CC(C)C)NC(=O)[C@H](CC(N)=O)NC1=O)[C@@H](C)O,92.4
14,CCCC[C@H](NC(C)=O)C(=O)N1CCC[C@H]1C(=O)N[C@@H](CCCNC(=N)N)C(=O)N[C@@H](Cc1ccccc1)C(=O)N[C@]1(C)CCCCCCCCCCC[C@@](C)(C(=O)N[C@@H](CCC(N)=O)C(=O)N[C@@H](CC(N)=O)C(N)=O)NC(=O)[C@H](CC(C)C)NC(=O)[C@H](CC(C)C)NC(=O)[C@H](CCCNC(=N)N)NC(=O)[C@H](Cc2c[nH]c3ccccc23)NC(=O)[C@H](Cc2ccc(O)cc2)NC(=O)[C@H](CC(N)=O)NC1=O,61.6
15,CC(=O)N[C@@H](CC(C)C)C(=O)N[C@H](C(=O)N[C@@H](Cc1ccccc1)C(=O)N[C@]1(C)CCCCCCC=CCCC[C@@](C)(C(=O)N[C@@H](CO)C(=O)N[C@@H](C)C(N)=O)NC(=O)[C@H](CC(C)C)NC(=O)[C@H](CCC(N)=O)NC(=O)[C@H](C)NC(=O)[C@H](Cc2c[nH]c3ccccc23)NC(=O)[C@H](Cc2ccc(O)cc2)NC(=O)[C@H](Cc2c[nH]cn2)NC1=O)[C@@H](C)O,80.8
16,CC(=O)N[C@@H](CC(C)C)C(=O)N[C@H](C(=O)N[C@@H](Cc1ccccc1)C(=O)N[C@]1(C)CCCCCCCCCCC[C@@](C)(C(=O)N[C@@H](CO)C(=O)N[C@@H](C)C(N)=O)NC(=O)[C@H](CC(C)C)NC(=O)[C@H](CCC(N)=O)NC(=O)[C@H](C)NC(=O)[C@H](Cc2c[nH]c3ccccc23)NC(=O)[C@H](Cc2ccc(O)cc2)NC(=O)[C@H](Cc2c[nH]cn2)NC1=O)[C@@H](C)O,78.4
17,Ac-TSFAEYWNLLSP-NH2,6.8
18,CC(=O)N[C@@H](CCCNC(=N)N)C(=O)N[C@@H](CO)C(=O)N[C@@H](CCC(N)=O)C(=O)N[C@@H](CCC(N)=O)C(=O)N[C@H](C(=O)N[C@@H](Cc1ccccc1)C(=O)N[C@]1(C)CCCCCCC=CCCC[C@@](C)(C(=O)N[C@@H](CCC(N)=O)C(=O)N[C@@H](CC(N)=O)C(N)=O)NC(=O)[C@H](CC(C)C)NC(=O)[C@H](CC(C)C)NC(=O)[C@H](CCCNC(=N)N)NC(=O)[C@H](Cc2c[nH]c3ccccc23)NC(=O)[C@H](CC(C)C)NC(=O)[C@H](CC(N)=O)NC1=O)[C@@H](C)O (Ac-RSQQTF[R8]NLWRLL[S5]QN-NH2; staple 7-14),62.3
19,CC(=O)N[C@@H](CCC(N)=O)C(=O)N[C@@H](CO)C(=O)N[C@@H](CCC(N)=O)C(=O)N[C@@H](CCC(N)=O)C(=O)N[C@H](C(=O)N[C@@H](Cc1ccccc1)C(=O)N[C@]1(C)CCCCCCC=CCCC[C@@](C)(C(=O)N[C@@H](CCC(N)=O)C(N)=O)NC(=O)[C@H](CC(C)C)NC(=O)[C@H](CC(C)C)NC(=O)[C@H](CCCNC(=N)N)NC(=O)[C@H](Cc2c[nH]c3ccccc23)NC(=O)[C@H](CC(C)C)NC(=O)[C@H](CC(N)=O)NC1=O)[C@@H](C)O (Ac-QSQQTF[R8]NLWRLL[S5]Q-NH2; staple 7-14),77.8
20,CC(=O)N[C@@H](CCC(N)=O)C(=O)N[C@@H](CO)C(=O)N[C@@]1(C)CCCCCCCCC2(CCCCCCCCCCC[C@@](C)(C(=O)N[C@@H](CCC(N)=O)C(=O)N[C@@H](CC(N)=O)C(N)=O)NC(=O)[C@H](CC(C)C)NC(=O)[C@H](CC(C)C)NC(=O)[C@H](CCCNC(=N)N)NC(=O)[C@H](Cc3c[nH]c4ccccc34)NC(=O)[C@H](CC(C)C)NC(=O)[C@H](CC(N)=O)NC2=O)NC(=O)[C@H](Cc2ccccc2)NC(=O)[C@H]([C@@H](C)O)NC(=O)[C@H](CCC(N)=O)NC1=O (some centres unmarked),96
21,C=CCCCCCC[C@@](C)(NC(=O)[C@H](Cc1ccccc1)NC(=O)[C@@H](NC(=O)[C@H](CCC(N)=O)NC(=O)[C@H](CCC(N)=O)NC(=O)[C@H](CO)NC(=O)[C@H](CCC(N)=O)NC(C)=O)[C@@H](C)O)C(=O)N[C@@H](CC(N)=O)C(=O)N[C@@H](CC(C)C)C(=O)N[C@@H](Cc1c[nH]c2ccccc12)C(=O)N[C@@H](CCCNC(=N)N)C(=O)N[C@@H](CC(C)C)C(=O)N[C@@H](CC(C)C)C(=O)N[C@@](C)(CCCC=C)C(=O)N[C@@H](CCC(N)=O)C(=O)N[C@@H](CC(N)=O)C(N)=O,55
22,CC(=O)N[C@@H](CC(C)C)C(=O)N[C@H](C(=O)N[C@@H](Cc1ccccc1)C(=O)N[C@]1(C)CCCCCCCCCCC[C@@](C)(C(=O)N[C@@H](CO)C(N)=O)NC(=O)[C@H](CC(C)C)NC(=O)[C@H](CCC(N)=O)NC(=O)[C@H](C)NC(=O)[C@H](Cc2c[nH]c3cc(Cl)ccc23)NC(=O)[C@H](Cc2ccc(O)cc2)NC(=O)[C@H](Cc2c[nH]cn2)NC1=O)[C@@H](C)O,69.5
23,Ac-MPRFMDYWEGLN-NH2,7.5
